To fix the notation:
B1: TCN-550 (5096_F06) (antibody, V domains shown)
VH: QVQLQESGPGLVKPSETLSLTCTVSGASINSHYWSWIRQPPGKGLEWIGYVYYSGSTTYNPSLKSRVTLSVDTSKNQFSLNLSSVTAADTAFYYCARHPYDVLTGSGDWFDPWGQGTLVTVSS
VL: SYVLTQAPSVSVAPGQTARITCGGNAIGSKKVHWYQHKAGQAPVLVVYDDTDRPSGIPERFSGSNSWSTATLTINRVEAGDEADYYCQVWDFTIDHVVFGGGTKLTVL
B2: TCN-560 (5084_P10) (antibody, V domains shown)
VH: EVQLVESGGGLVQPGGSLRLSCAASGFIFRNYWMSWVRQAPGKGLEWVANIKQDGREKYYVDSLRGRVNISRDNAENSLYLHMNSLRVEDTAVYFCARARMVVVTGDGFDVWGHGTMVTVSS
VL: DIQMTQSPSSLSASVGDRVTITCRASQNIKRYFNWYQQKPGKAPKLLIYAASNLENGVPSRFSGSGSGTDFTLTISSLQPEDFATYYCQQSFSKSWTFGQGTNVDIK
B3: TCN-557 (5081_A04) (antibody, V domains shown)
VH: QVQLVQSGAEVKKPGASVKVSCKASGHTFTGYYIHWVRQAPGQGLEWMGWINPDSGATSSAQNFQGRVTMTGDTSSSTAYMELSRLSFDDTAVYYCARVLFTSPFDFWGEGTLVTVSS
VL: QAVVTQEPSLAVSPGGTVTLTCGSSTGAVTRGHYPYWFQQKPGQAPRALIYDSAGNRHSWTPARFSGSLLGGKAALTLSGAQPEDEAEYYCLLSYSGVWVFGGGTKLTVL
B4: TCN-555 (5246_L16) (antibody, V domains shown)
VH: QVQLVQSGAEVKRPGSSVKVSCTASGGIFRKNAISWVRQAPGQGLEWMGGIIAVFNTANYAQKFQNRVKITADESGNTAYMELSSLTSDDTAVYYCASHPKYFYGSGSYPDFWGQGTLVTVSS
VL: QSALTQPRSVSGSPGQSITISCTGGSSDIGASNSVSWYQQHPGKAPKLVIFDVTERPSGVPHRFSGSKSGNTASLTVSGLQPDDEADYFCCAYGGKYLVVFGGGTKVTVL
B5: TCN-549 (5092_P04) (antibody, V domains shown)
VH: QVQLVQSGAEVKKPGASVKVSCKASGYTFTGYYMHWVRQAPGQGLEWMGWINPNSGDTNYAQKFQGRVTMTRDTSITTAYMELSSLRSDDTAVYYCARDSPYSSSWSFFDYWGQGPLVTVSS
VL: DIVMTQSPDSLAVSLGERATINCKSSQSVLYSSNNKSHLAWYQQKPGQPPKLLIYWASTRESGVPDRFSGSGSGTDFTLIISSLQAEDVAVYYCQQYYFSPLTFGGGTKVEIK
B6: TCN-548 (5092_P01) (antibody, V domains shown)
VH: QVQLQESGPGLVKPSETLSLTCTVSSGPMSDYYWSWIRQPPGKGLEWIGHVSVSHGGRTKSNPSVMSRVTISVETSKNQFSLKLTSVTAADTAVYYCARLNYYDRSGYHSPDGPSNNWFDPWGQGTLVTVSS
VL: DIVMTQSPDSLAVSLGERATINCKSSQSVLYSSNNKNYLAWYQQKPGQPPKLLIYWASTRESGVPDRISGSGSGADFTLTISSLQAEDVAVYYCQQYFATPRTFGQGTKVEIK
B7: TCN-551 (5243_D01) (antibody, V domains shown)
VH: EVQLVQSGSEVKKPGESLKISCKGSGYSFSNYWIGWVRHMPGKGLEWMGIIYPGDSDTRYSPSFQGQVTMSADKSSSTVYLQWSSLKASDTAIYYCARRGGHSFGYGSGGDTHSEFDSWGQGTLVTVSS
VL: QSVLTQSPSVSAAPGQKVTISCSGSDSNIGDYFVCWYQHLPGKPPQLLIYENNKRPSGIPDRFSGSKSGTSATLGITGIQTGDEADYYCATWDGSLSAWVFGGGTKLTVL
B8: TCN-552 (5249_I23) (antibody, V domains shown)
VH: QVQVVQSGAEVKKPGSSVRVSCQASGGTFMNYAIIWVRRAPGQGLEWMGGIIPVFPTPNYAQMFQGRVTISTDESRSTSFLELTNLRYEDTAVYYCARRIYHGGNSGFDFWGQGTLVTVSS
VL: EIVLTQSPATLSLSPGERATLSCRASQSVGNYLAWYQQKPGQAPRLLIYDSSNRAPGIPARFSGSGSGTDFTLTISSLAPEDFAVYYCQQRSKWPPMYSFGHGTKLEIK
B9: TCN-553 (5261_C18) (antibody, V domains shown)
VH: QVQVVQSGTEVKKPGSSVKVSCQTSGGRFMSYAITWVRQAPGQGLEWMGGIVPVFGTANYAQKFQGRVTITTDDSTRTAYMELSSLRSEDTAVYYCGFRYGSGYGFDSWGQGTLVTVSS
VL: EIVLTQSPGTLSLSPGERATLSCRASQSVSSSYLAWYQKKPGQAPRLLIYGASTRATGIPDRFTGSGSGTDFTLSISRLEPEDFAVYYCQHFGTSVFTFGGGTKVEIK
B10: TCN-556 (5089_K12) (antibody, V domains shown)
VH: QVQLVQSGAEVKKPGASVKVSCKASGYTFIGYDMHWVRQAPGQGLEWMGWINAKRGGTNYAQKFQGRVTMTRDTSISTAYMELNSLRSDDTAVYYCARGVGSRTTIFGVLNPEFDYWGQGTLVTVSS
VL: QSALTQPPSASGSPGQSVTISCTGSSSDVGGYDYVSWYQQHPGKAPKLLIYEVTKRPSGVPDRFSGSKSGNTASLTVSGLQAEDEADYYCSSYAGNYNHVFGPGTKVTVL

For this assay, the target named is Hemagglutinin of influenza A/Solomon Islands/3/06 (H1N1), on inactivated whole virions (Influenza A virus A/Solomon …). The assay is described as follows: ELISA, B cell culture supernatant on inactivated whole virions.
B1 showed an OD450 of 0.06 OD450.

As for B2, the OD450 is 3.63 OD450.

For the molecule B3, the OD450 was 2.32 OD450.

In turn, B4 gave an OD450 of 2.89 OD450.

Take B5: the OD450 was 0.09 OD450.

B6 gave an OD450 of 0.09 OD450.

For the molecule B7, the OD450 was 3.35 OD450.

As to B8, the OD450 was 3.57 OD450.

Take B9: the OD450 was found to be 3.6 OD450.

As for B10, the OD450 was found to be 2.7 OD450.

The values above are taken from US20120207760A1 (THERACLONE SCIENCES, published 2012).
